What was measured:
Assay type in all cases: cell-based
human basophils = experiment: Basophil depletion (cytotoxic) activity in human peripheral blood cells, flow cytometry; settings: 37° C., 20 hours
Protocol: Human peripheral blood collected by adding a heparin sodium injection liquid was centrifuged at 4° C. and 1500 rpm for 30 minutes, and the plasma was recovered.
After the plasma was recovered, PBS (NACALAI TESQUE, Inc.) was added to the pellet containing the red blood up to the original volume of blood and the pellet was suspended. Next, to 1 mL of the suspension, 10 mL of hemolyzing solution [solution obtained by diluting 10×RBC Lysis buffer (eBioscience) 10 times with sterile water] was added to be mixed by inversion. The resultant was allowed to stand at room temperature for 10 minutes and centrifuged at room temperature and 1500 rpm for 5 minutes and washed twice with PBS after the supernatant was removed therefrom.
Thereafter, the cell pellet was suspended with the recovered plasma and the cells were seeded in a 48-well plate at 300 μL/well, each of chLym2, humanized Lym2 antibodies LV0HV0, LV0HV1, and LV0HV2a, or an isotype control antibody [IgG1 antibody prepared according to the method described in Example 5 using a vector encoding an anti-2,4-dinitrophenol (DNP) IgG1 antibody described in Clin Cancer Res 2005, 11(8), 3126 to 3135 (hereinafter, referred to as anti-DNP IgG1 antibody)] were added at each final concentrations of 1000, 100, 33, 11, 3.7, 1.2, 0.4, and 0.01 ng/mL to cause a reaction in a 5% CO2 incubator at 37° C. for 20 hours.
After the reaction, the cell fluid in each well was recovered, 10 mL of SM was added thereto, 200 μL per sample of CountBright Absolute Counting Beads, for flow cytometry (Molecular Probes) was added as control beads, and the fluid was centrifuged at 4° C. and 2000 rpm for 10 minutes, and then the supernatant was removed. The resultant was washed twice with SM, 10000 μg/mL of IgG from human serum (Sigma-Aldrich Co. LLC) diluted with SM was added at 300 μL/sample and suspended to cause a reaction at 4° C. for 30 minutes. […]
The cells were washed twice with SM, suspended by SM containing 1% of 7-AAD Staining Solution (BD Biosciences), allowed to stand at 4° C. for 10 minutes, and the fluorescent intensity was analyzed by flow cytometry (BD Biosciences, FACS CantoII).
Human eosinophils were detected as 7-AAD negative siglec8-PE positive fractions in granulocyte fractions of FSC-SSC deployment. Human basophils were detected as 7-AAD negative fractions, CD123-PC-Cy7 positive fractions, FcεRI-APC positive fractions in lymphocyte fractions of FSC-SSC deployment. The cell depletion activity was evaluated by analyzing the count number of each cell per a certain number of CountBright. […]

human eosinophils [1] = experiment: Agonist, antagonist and ligand-induced signal enhancing activity using shape change of human eosinophils (Example 21); settings: antibody 10 μg/mL, FIG. 18
Protocol: Eosinophils were separated from human peripheral blood in the same manner as in Example 11. In this case, the step of adding the same amount of physiological saline for injection as the blood to the blood was omitted and the […] on Ficoll-Paque PREMIUM 1.084 (GE Healthcare). The isolated human eosinophils were suspended with D-PBS (−) (NACALAI TESQUE, Inc.) and a reaction was performed in a 5% CO2 incubator at 37° C. for 1 hour and 30 minutes.
Thereafter, the cells were seeded in a 96-well plate at 0.7×10^5 cells/well using 10% FBS-containing RPMI1640. Next, an isotype control antibody, the humanized Lym2 antibody LV0HV1, the anti-human CRTH2 antibody hu19A2 v52, ch8B1, ch3C12, or ch31A5 prepared in Example 9, or the commercially available anti-human CRTH2 antibody BM16 (Santa Cruz Biotechnology), or 301108 (R&D) was added thereto at a final concentration of 10 μg/mL to cause a reaction in a 5% CO2 incubator at 37° C. for 30 minutes. […]
Next, RPMI1640 containing either DKPGD2 (Cayman Chemical) or 10% FBS—was added thereto at a final concentration of 100 nM to cause a reaction in a 5% CO2 incubator at 37° C. for 60 minutes. […] The cells were washed twice with SM, and the shape change of eosinophils was analyzed in the same manner as in Example 19.

human eosinophils [2] = experiment: Agonist activity using shape change of human eosinophils as index (Example 20); settings: 0 to 10 μg/mL, 1 hour; FIG. 17
Protocol: In the same experimental system as in Example 19 described above, rat anti-human CRTH2 antibody Lym2 at each final concentration of 0, 0.01, 0.1, 1, and 10 μg/mL was added and a reaction was performed for 1 hour and shape change of eosinophils was analyzed.

Molecule	cytotoxic activity against basophils (human basophils; Example 8, 0.01-1000 ng/mL, FIG. 3)	removal of basophils (human basophils; Example 14, 0.1-1000 ng/mL, FIG. 11)	effect on shape change of eosinophils induced by DKPGD2 (human eosinophils [1]; DKPGD2 100 nM)	shape change of eosinophils in the absence of a ligand (agonist activity) (human eosinophils [1]; no DKPGD2)	shape change of eosinophils caused by antibody (agonist activity) (human eosinophils [2])
LV0HV1: humanized Lym2 antibody, VL LV0 (SEQ ID NO: 33), VH HV1 (SEQ ID NO: 51) (antibody, V domains shown) VH: EVQLVESGGGVVQPGRSLRLSCAASGFTFSNYYMAWVRQAPGKGLEWVATISYDGSSTYYRDSVKGRFTISRDNAKNSLYLQMNSLRAEDTATYYCARHRGYYYSGAGYFDYWGQGTMVTVSS VL: DIVMTQTPLSLPVTPGESASISCRSSQSLEYSDGYTYLEWYLQKPGQSPQVLIYGVSNRFSGVPDRFSGSGSGTDFTLKISRVEAEDVGVYYCFQATHDPLTFGQGTKLEIK	comparable to the chimeric Lym2 antibody chLym2	removed	do not affect shape change	do not affect shape change	
Lym2 antibody: rat anti-human CRTH2 monoclonal antibody from hybridoma Lym2, rat IgG2b; VH SEQ ID NO: 17, VL SEQ ID NO: 19 (antibody, listed as Rattus norvegicus, V domains shown) VH: EVQLVESGGGLVQPGRSMKLSCAASGFTFSNYYMAWVRQAPKKGLEWVATISYDGSSTYYRDSVKGRFTISRDNAKSTLYLQMDSLRSEDTATYYCARHRGYYYSGAGYFDYWGQGVMVTVSS VL: DVVLTQTPVSLSVTLGDQASISCRSSQSLEYSDGYTYLEWYLQKPGQSPQVLIYGVSNRFSGVPDRFIGSGSGTDFTLKISRVEPEDLGVYYCFQATHDPLTFGSGTKLEIK					doesn't cause the shape change
